The test system of this data set is T1, CC(=O)Oc1ccc([N+](=O)[O-])cc1.
T1 construct: native secreted enzyme purified from culture broth (ammonium sulfate, ultrafiltration, continuous elution electrophoresis, renatured with Triton X-100); 22 kDa, pI 6; no glycosylation detected
Kind of data set: Lineweaver-Burk, p-nitrophenol release. As to conditions: Tris-HCl pH 9.0, 37 °C, substrate 0.5-2 mM. Type of data set: biochemical, Aspergillus nidulans. An excerpt:
Lineweaver-Burk, p-nitrophenol release on ANCUT1

In the case of ANCUT1 (Aspergillus nidulans FGSC A4), the Km (commonly the concentration of substrate that gives half-maximal velocity) is 18.29 mM; the Vmax (as a rule, the top rate of the reaction or transport when substrate is in excess) turned out to be 58800 µM/min; the kcat (as a rule, the number of substrate molecules converted per active site and unit of time at saturation) was 3.67 s⁻¹; the kcat/Km (as a rule, the second-order rate constant that governs catalysis at low substrate concentration) was found to be 201 M⁻¹ s⁻¹.

Source of the values: publication PMC11055803, “ANCUT1, a novel thermoalkaline cutinase from Aspergillus nidulans and its application on hydroxycinnamic acids lipophilization” (Biotechnology Letters, 2024).
